Assay results from the DeepSol protein solubility set.

Assay: soluble on expression in E. coli; label from the status in PepcDB or PDB records

Row | Sequence | soluble on expression in E. coli
1 | MKMISTIQKKETVMVAPIPAKRGRKPAVATAPATGQVQSLTRGLKLLEWIAESNGSVALTELAQQAGLPNSTTHRLLTTMQQQGFVRQVGELGHWAIGAHAFMVGSSFLQSRNLLAIVHPILRNLMEESGETVNMAVLDQSDHEAIIIDQVQCTHLMRMSAPIGGKLPMHASGAGKAFLAQLSEEQVTKLLHRKGLHAYTHATLVSPVHLKEDLAQTRKRGYSFDDEEHALGLRCLAACIFDEHREPFAAISISGPISRITDDRVTEFGAMVIKAAKEVTLAYGGMR | soluble
2 | MSLFTGPIVAVGEYVEGLGEGRRYVSIPYYRREIERVIGARPFPGTFNVRVEREERESLRELASSYGYRIEPHGEYGGAWLYPCLVNGRPAWLVFPDLTEHRDQVELISETELRRELNVIHGDMVKIEVWGPSTWKLARRLTCGPSGGREGHHHHHH | soluble
3 | MAHHHHHHMFAALSWLLDLDQGHAASSSSTSSCSSYSGSLDADAGVETDPAANHTTFSDAGGQLLAELHISSVAAATLSRSASEAAAPPRGAVYSSARHLEESFADLEARKAEFFAPSPCQEPAEDAGLGLSSLTERGGTPVSPLSCKIVPLGSLCAYANETVSLSPIASPVPAPVSATVATLLAPTHEDERLLLVSEGVMLSARLSSPSRGGPRAAAERAKITNNDGSATGAMGAGVAAPTQRSRILDWDREMHARPQASPPPGLSANRGERAVRSGTGVQERSEQIADAEPGEARLVRGAMKAAFMLSTPPHTPALGAAAFAPAAVPLHPSPPFLGTTVGARDAAVPGYSIERIHDTPAQEDSGVVYLADGLATVTSMDVGDLHRQAEQSSPPLTHPLAAQLTTPSHTKQPHFDFS | not soluble
4 | MIAMIVKGGLAMAISNGHVSFKRPAWLGDSITANNGLATVHYHDILAADWDVERSDNLGISGSTIGSRYDAMAVRYQAIPEDADFIAVFGGVNDYGRDQPLGQYGDCDMTTFYGALMMLLTGLQTNWPTVPKLFISAIHIGSDFGGSFSAVTNGLGYRQSDYEAAIAQMTADYGVPHLSLYRDAGMTFAIPAQAAIYSVDTLHPNNAGHRVIARKLQSFLDSHFLEHHHHHH | soluble
5 | MYQVVKMFGDWEPWWFIEGWEEDITEIAEYDTLSEALLYFQEEWDRGQEKWPYFQSKSSLLATFWSIKEKRWCEECDEYLQQYHSLMLLKEWQEIPKEESIERFEVFNKIAELPSACSLNLLEHHHHHH | soluble
6 | MGSDKIHHHHHHMQLSAMFVHPVKSCRGIAFDRAYAGKLGLLHDREWLLVSPDGQQITARAHPKLVTIRVELLPGGALLHHSGKAPIFAMATAYTRPHPAQVWKDGFQAWHGDERVDAWFADILGCDCRLLWLGAQSNRPFKGGPETMSFADGYPFLLASQASLDDLNRQLAAPVTLRHFRPNLVVSGAYPWEEDEWQVIRIGDVEFDVVKPCVRCVLTTVDPELGEKRADGEPLQTLIRTRMLDAGVCFGMNLRARNEGVLELGAPVEVLEQRYSF | not soluble
7 | MSLKVIWTVTPVGYQRIAKRCPSCSVKRDFTPSGAFRVNSQKKVLDVWSIYKCTHCDYTWNISLFSRLPVSKINRDLYCRLMANDAATVQYFAYDNAILKRNNAELSGQPDFHIQERWLVSIASHKQVSVSVRISRSFQVSLLSILKKQLLLSAAEIKRRIETGQISGVTMKMLKSRKLKNAKYDLQLSVETLYDRRRIVLTCREGHHHHHH | soluble
8 | DDFEDSLEYLEPLDHDAYIVRLNFTGENTTEPIISYMTKTHNIDVNILEADIKNTKNGSLGFLVIHIPHISEEHFKQFKHNLHEQHVNVEVLKHG | not soluble
9 | LEAVAPERPRCAYCSAEASKRCSRCQNEWYCCRECQVKHWEKHGKTCVLAAQGDRAK | soluble
10 | MGSDKIHHHHHHASSCGDECPVEQPYSVRVSVKDKNYLNISQFPQLSQVDENLPFRTYAGTLYYALYDASTGALIRESAVVSTEGEEKEYTLTFPGVPDGDYKLAVWGNLTTDYPAGILHQDGKEHTDIYVTSGDLHFSPDYQTEELTLERTKGKLLLLCSNFPSEITRIEQNVSHVYQSTDAGLNYSGSTQVDKNVPFTSVLETLLAPTSAEGHSKLTLTFYTGGTRASETPYLKLPVMEMDMRRNEITAVSIDYNTSEGIWEIKMFIRGEWITIHRLDIF | not soluble
11 | ARSSRFTRQADETLTDSEGSGLQFINFDEGSASNPIIARDQEGSGQMYDEEGSGNTLLFDSETPIQVMNVTGTEAEPTDSKVFNQSINITDSDVETLVIKVHLPQKTTSQLLDDLKDDTAQQTNPINTLDTAVSLTSMLNELLGKIQDATTQ | not soluble
12 | MGSDKIHHHHHHMLSTVFRRTMATGRHFIAVCQMTSDNDLEKNFQAAKNMIERAGEKKCEMVFLPECFDFIGLNKNEQIDLAMATDCEYMEKYRELARKHNIWLSLGGLHHKDPSDAAHPWNTHLIIDSDGVTRAEYNKLHLFDLEIPGKVRLMESEFSKAGTEMIPPVDTPIGRLGLSICYDVRFPELSLWNRKRGAQLLSFPSAFTLNTGLAHWETLLRARAIENQCYVVAAAQTGAHNPKRQSYGHSMVVDPWGAVVAQCSERVDMCFAEIDLSYVDTLREMQPVFSHRRSDLYTLHINEKSSETGGLKFARFNIPADHIFYSTPHSFVFVNLKPVTDGHVLVSPKRVVPRLTDLTDAETADLFIVAKKVQAMLEKHHNVTSTTICVQDGKDAGQTVPHVHIHILPRRAGDFGDNEIYQKLASHDKEPERKPRSNEQMAEEAVVYRNLM | not soluble
13 | MGRQAMKKFVDVSHTIENGLITYKGLPAPIICDYLSREESRSFYEPGTEFQIGKIEMVTNTGTYIDVPFHRYADGKDLSEATVEQMAGLEGVVIPVDKHVKKIDVDVFKSADLHGKAVLIYTGWDEHWNTERYFEDHPYVTEEAANYLKEQKVALVGIDSHNIDDTSGKRRPVHTILLRADILIVEHLCKLGQLVDQSFLFYAVAPKFKGAGTFPVRAFAEIVLEHHHHHH | soluble
14 | MATRFKGLSAFPITPADEAGRVDIEAFSALIARLDAAEVDSVGILGSTGIYMYLTREERRRAIEAAATILRGRRTLMAGIGALRTDEAVALAKDAEAAGADALLLAPVSYTPLTQEEAYHHFAAVAGATALPLAIYNNPTTTRFTFSDELLVRLAYIPNIRAIKMPLPADADYAGELARLRPKLSDDFAIGYSGDWGCTDATLAGGDTWYSVVAGLLPVPALQLMRAAQAGNAEEAKRLDATFQPLWALFKEFGSIRVIYAAANILSLTVSEPPRPILPLTSAERQRVEEALEALSALETAP | not soluble
15 | GSARPSSSMADFRKFFAKAKHIVIISGAGVSAESGVPTFRGAGGYWRKWQAQDLATPLAFAHNPSRVWEFYHYRREVMGSKEPNAGHRAIAECETRLGKQGRRVVVITQNIDELHRKAGTKNLLEIHGSLFKTRCTSCGVVAENYKSPICPALSGKGAPEPGTQDASIPVEKLPRCEEAGCGGLLRPHVVWFGENLDPAILEEVDRELAHCDLCLVVGTSSVVYPAAMFAPQVAARGVPVAEFNTETTPATNRFRFHFQGPCGTTLPEALA | soluble
16 | MAHHHHHHMFLTFVRHTPPKTPRNVFFPWQNFSIHKSGSFLEKNRLALRVPINLTKFEIREYLRKIYNAKVIKVNTLIKVPERRRNLTDFRFNYYRNGPRYKKAIITLEHEVPDSVKMIQSCKNIGRNPYITKKNVIYGVRSDVKITPTRSQLWQMGECRYSWRLPLTNLLADYKMNLNPDLRIDENLVQLAPDMTKPFMHSGISSQTFKPSSVPEQTFPKVIFFFFQKGDVLA | soluble
17 | MVTILDRTSSDEKRIRHPEKAHRPDTEVMRKPEWIRVKAPTSKGYHETRELVRSHKLVTVCEEAGCPNIGECWEKKHATFMIMGEICTRACAFCNVATGKPNALDMDEPENVAKAVKQMGLSHVVITSVDRDDLADGGAEHFEKVIWAIRAASPTTTIEILTPDFLKKPGALERVVAAKPDVFNHNMETVPGNYLTVRPGARYFHSVRLLQRVKELDPTMFTKSGIMVGLGEERNEVLQLMDDLRSADVDFLTIGQYLQPTRKHHKVEAFVTPEEFKSYETVAYAKGFLMVSSSPLTRSSHHAGDDFERLRAAREKKLLAAAE | not soluble
18 | MGHHHHHHSHMDDIFTQCREGNAVAVRLWLDNTENDLNQGDDHGFSPLHWACREGRSAVVEMLIMRGARINVMNRGDDTPLHLAASHGHRDIVQKLLQYKADINAVNEHGNVPLHYACFWGQDQVAEDLVANGALVSICNKYGEMPVDKAKAPLRELLRERAEK | not soluble
19 | MYCDHFGFSEHPFALTPNPAFLFLSSRHQEAFAHLLYGIDTRAGFIELSGEVGTGKTTVIRTFLNQLDPETHRTALVFNPTVSPLGLLQGIIREFGLPGTSTEKSELLETLNRFLLDENRAGHTVVLVIDEAQNLSPEVLEQIRLISNLETERDKLIQIVLVGQPELRHLLARQELRQLDQRITVRYHLEPMGLDDTKNYIRHRIRIAAGGREPVIFSAGAVKKIFGFSGGLPRLINAACDRALLLAYTTEAREVSPAMAAAAIADVATEARPPSPSRRFAVAAALILVAALGAGTFAVTRKGGESLPSASPPPTEPAASGEQPLKRTAALAGLAAVPEKDNLSAAVNTILRSWQAPPVASSPSPADLRSLARERGLTVTELSGTLNDLARLDTPALLHITLPQGGKRLVALTSLDKGHIGIDPPIAGHSTLTGGELSTLWSGRASVIWKNFHGIPSRLKPGGRSKAVGQLQELLKGAGYYAGRISGTYDTVTQEAIRSFQTAEGLDADGRTGEKTLLLLYRRAGGFFPPGLTQGKTAARTEAGDRSRGKVAQTRSNGEQSRLEHHHHHH | not soluble
20 | SNAMFHYTVDVSTGMNETIERLEESLKQEGFGVLWQFSVTEKLQEKGLDFSTPMVILEVCNPQEAARVLNENLLVGYFLPCKLVVYQENGTTKIGMPKPTMLVGMMNDPALKEIAADIEKRLAACLDRCR | soluble
21 | MAHHHHHHMKKACKLASECLKLCLENSKEGITTDIIDNMAYDFYIKNNAYPAGLNFHSFPKSICASPNEVVCHGIPNLRKLQRGDIITYDCTVFLDGVFGDCAGTVGIGEISERHKKLMDVSKECLYKAISICRDGQLFSEIGRIITEHANKNGFNVIKDFCGHFIGTHMHMYPLIEHHYPNSHNNHRMKKGQIFTIEPILSEGSINIYTWKDKWTVCTNDNSFCSQWEHTILVLDNYAEILT | not soluble
22 | MGALIPSSTLFNIFDFNPKKVRIAFIAVGLRGQTHVENMARRDDVEIVAFADPDPYMVGRAQEILKKNGKKPAKVFGNGNDDYKNMLKDKNIDAVFVSSPWEWHHEHGVAAMKAGKIVGMEVSGAITLEECWDYVKVSEQTGVPLMALENVCYRRDVMAILNMVRKGMFGELVHGTGGYQHDLRPVLFNSGINGKNGDGVEFGEKAFSEAKWRTNHYKNRNGELYPTHGVGPLHTMMDINRGNRLLRLSSFASKARGLHKYIVDKGGESHPNAKVEWKQGDIVTTQIQCHNGETIVLTHDTSLQRPYNLGFKVQGTEGLWEDFGWGEAAQGFIYFEKIMNHSHRWDSSEKWIKEYDHPMWKKHEQKAVGAGHGGMDYFLDNTFVECIKRNEAFPLDVYDLATWYSITPLSEKSIAENGAVQEIPDFTNGKWKNAKNTFAINDDY | soluble
